Series [1] concerns the target human insoluble aortic elastin (UniProt P15502).
Series [2] deals with human insoluble skin elastin (UniProt P15502).
In the next series the target is fibrillin-1 (UniProt P35555).
The next series deals with fibronectin (UniProt P02751).

“Also recorded” adds a separate entry of the source.

Sequence of fibrillin-1 (P35555 whole entry, looked up): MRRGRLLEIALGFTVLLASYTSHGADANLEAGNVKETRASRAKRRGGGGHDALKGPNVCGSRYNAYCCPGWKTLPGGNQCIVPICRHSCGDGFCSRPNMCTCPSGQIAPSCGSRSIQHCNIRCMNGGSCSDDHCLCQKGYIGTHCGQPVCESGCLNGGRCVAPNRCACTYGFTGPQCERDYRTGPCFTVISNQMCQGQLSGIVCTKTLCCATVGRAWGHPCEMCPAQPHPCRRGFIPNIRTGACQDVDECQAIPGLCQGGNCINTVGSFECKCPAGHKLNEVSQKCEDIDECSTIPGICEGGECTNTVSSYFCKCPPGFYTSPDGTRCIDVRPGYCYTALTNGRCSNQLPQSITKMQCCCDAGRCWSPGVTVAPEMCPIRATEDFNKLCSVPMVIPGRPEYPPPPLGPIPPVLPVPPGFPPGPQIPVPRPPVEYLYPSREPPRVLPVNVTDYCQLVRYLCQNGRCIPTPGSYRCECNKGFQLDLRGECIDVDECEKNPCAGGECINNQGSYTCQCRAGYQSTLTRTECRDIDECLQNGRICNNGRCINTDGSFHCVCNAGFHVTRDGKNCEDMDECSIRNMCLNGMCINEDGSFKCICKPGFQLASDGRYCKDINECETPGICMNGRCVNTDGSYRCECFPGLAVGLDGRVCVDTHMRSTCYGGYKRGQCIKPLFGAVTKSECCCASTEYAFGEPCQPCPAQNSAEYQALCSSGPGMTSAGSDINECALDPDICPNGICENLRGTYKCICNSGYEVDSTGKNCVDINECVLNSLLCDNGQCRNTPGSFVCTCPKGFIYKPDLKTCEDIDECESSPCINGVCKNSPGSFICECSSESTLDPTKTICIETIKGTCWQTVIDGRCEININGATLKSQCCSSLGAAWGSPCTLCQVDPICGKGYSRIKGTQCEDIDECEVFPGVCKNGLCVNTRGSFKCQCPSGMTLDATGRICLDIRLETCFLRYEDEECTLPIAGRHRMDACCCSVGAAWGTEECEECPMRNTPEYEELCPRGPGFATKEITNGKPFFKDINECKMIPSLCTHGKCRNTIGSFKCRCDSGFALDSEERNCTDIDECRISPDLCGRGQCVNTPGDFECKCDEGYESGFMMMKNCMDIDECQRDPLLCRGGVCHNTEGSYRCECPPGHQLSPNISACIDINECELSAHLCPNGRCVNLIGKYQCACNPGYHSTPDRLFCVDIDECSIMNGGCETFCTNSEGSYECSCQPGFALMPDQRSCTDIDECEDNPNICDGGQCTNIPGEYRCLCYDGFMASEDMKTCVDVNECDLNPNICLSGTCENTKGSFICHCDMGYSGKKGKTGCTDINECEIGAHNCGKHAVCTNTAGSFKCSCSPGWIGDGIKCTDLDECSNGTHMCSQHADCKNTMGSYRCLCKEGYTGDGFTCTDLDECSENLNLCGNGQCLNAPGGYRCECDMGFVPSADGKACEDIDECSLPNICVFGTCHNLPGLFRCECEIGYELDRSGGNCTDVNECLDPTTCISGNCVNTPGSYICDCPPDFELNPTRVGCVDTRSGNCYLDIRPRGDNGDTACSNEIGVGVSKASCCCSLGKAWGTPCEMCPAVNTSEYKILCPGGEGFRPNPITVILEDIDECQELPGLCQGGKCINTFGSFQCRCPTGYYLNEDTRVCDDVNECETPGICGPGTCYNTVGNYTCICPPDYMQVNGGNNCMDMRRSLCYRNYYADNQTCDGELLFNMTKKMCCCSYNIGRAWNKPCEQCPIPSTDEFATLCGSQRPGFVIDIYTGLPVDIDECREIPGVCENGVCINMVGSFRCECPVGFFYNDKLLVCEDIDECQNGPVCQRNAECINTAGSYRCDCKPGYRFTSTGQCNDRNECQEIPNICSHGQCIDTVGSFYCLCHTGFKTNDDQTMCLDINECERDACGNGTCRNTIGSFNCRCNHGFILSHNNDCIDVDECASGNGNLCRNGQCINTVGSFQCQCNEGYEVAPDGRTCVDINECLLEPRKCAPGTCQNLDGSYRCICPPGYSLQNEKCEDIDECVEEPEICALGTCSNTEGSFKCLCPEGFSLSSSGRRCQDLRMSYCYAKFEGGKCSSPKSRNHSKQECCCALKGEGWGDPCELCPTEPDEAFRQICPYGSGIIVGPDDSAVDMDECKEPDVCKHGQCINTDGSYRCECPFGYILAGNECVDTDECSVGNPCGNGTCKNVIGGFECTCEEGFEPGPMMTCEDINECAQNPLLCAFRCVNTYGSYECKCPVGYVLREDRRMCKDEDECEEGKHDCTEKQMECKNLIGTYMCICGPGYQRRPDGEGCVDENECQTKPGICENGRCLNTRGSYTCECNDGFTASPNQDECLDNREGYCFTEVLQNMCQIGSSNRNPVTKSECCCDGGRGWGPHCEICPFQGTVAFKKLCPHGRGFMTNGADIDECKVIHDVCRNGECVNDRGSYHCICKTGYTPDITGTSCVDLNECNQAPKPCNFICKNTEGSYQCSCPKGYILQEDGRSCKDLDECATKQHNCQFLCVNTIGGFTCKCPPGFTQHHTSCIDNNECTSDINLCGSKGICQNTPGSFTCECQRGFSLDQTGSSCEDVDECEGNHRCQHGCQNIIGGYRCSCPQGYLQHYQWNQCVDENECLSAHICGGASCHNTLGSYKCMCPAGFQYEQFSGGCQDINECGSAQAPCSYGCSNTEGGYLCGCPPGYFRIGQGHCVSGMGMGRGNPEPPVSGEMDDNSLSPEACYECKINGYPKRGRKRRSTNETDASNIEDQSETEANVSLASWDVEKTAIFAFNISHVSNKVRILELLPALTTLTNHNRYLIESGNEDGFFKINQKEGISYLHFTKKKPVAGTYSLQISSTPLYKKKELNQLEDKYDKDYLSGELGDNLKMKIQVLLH
Sequence of human insoluble skin elastin (P15502 27-786): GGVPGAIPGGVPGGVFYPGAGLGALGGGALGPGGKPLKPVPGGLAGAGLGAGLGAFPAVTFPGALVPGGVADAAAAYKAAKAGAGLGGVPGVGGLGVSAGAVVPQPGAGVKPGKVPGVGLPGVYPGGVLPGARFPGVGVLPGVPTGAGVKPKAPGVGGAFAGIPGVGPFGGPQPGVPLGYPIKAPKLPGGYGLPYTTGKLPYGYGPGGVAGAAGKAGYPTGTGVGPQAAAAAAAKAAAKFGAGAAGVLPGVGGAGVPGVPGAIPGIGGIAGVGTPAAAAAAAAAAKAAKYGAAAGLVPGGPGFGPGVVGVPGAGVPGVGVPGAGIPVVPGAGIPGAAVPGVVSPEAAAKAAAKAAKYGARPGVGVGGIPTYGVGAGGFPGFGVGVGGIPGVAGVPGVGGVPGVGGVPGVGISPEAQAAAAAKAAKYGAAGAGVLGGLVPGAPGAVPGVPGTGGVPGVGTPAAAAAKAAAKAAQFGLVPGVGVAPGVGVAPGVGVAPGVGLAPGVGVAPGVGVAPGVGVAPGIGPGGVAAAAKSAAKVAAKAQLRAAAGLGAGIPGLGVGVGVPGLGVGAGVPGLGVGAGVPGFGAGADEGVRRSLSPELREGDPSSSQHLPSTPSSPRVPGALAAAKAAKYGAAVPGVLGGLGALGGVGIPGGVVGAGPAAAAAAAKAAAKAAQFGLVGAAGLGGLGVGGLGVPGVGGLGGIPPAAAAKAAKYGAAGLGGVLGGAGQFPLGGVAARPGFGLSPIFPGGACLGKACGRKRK
Sequence of human insoluble aortic elastin (P15502 27-786): as above

In the case of elastase, the “radioactivity increase over background” value in series [1] worked out at 7.7 fold for aortic elastin; in series [2], 14.9 fold for skin elastin.

As for Granzyme A, the “cleavage fragments, fibrillin-1 Western blot of supernatant and ECM” value with fibrillin-1 is listed as “showed fibrillin-1 cleavage fragments in the GrA supernatant, GrA ECM”. Besides, the “cleavage fragments, fibronectin Western blot of supernatants” value with fibronectin was “supernatants treated with granzyme A for the indicated times were probed for fibronectin and several fragments were observed”.

Turning to Trypsin, in the series with fibrillin-1, the “cleavage fragments, fibrillin-1 Western blot of supernatant and ECM” value was “showed fibrillin-1 cleavage fragments in the GrA supernatant, GrA ECM, Trypsin supernatant, and Trypsin ECM; also recorded: showed fibrillin-1 cleavage fragments in the GrB supernatant, GrB ECM, Trypsin supernatant and Trypsin ECM”.
